Here are results for 1 compound from patent publication US20080317767A1, “Tripartitle Raftophilic Strutures and their Use” (priority 2004, published 2008).

Where a SMILES comes first, the peptide text is derived from it. [ ]: non-standard residue; d: D form. The star is where a group is joined. Piperazinyl(4-RhodamineB) = CCN(CC)c1ccc2c(-c3ccccc3C(=O)N3CCN(*)CC3)c3ccc(=[N+](CC)CC)cc-3oc2c1; X1 = CC(C)CCC[C@@H](C)[C@H]1CCC2C3CCC4C[C@@H](O*)CC[C@]4(C)C3CC[C@@]21C; Sta = CC(C)C[C@H](N)[C@@H](O)CC(=O)O; βAla = NCCC(=O)O

This series in a line: Qualitative solubility assessment in an aqueous medium. Format: physicochemical.

Turning to `CCN(CC)c1ccc2c(-c3ccccc3C(=O)N3CCN(C(=O)CC[C@H](N)C(=O)NCCC(=O)NCC(=O)N[C@@H](CCC(=O)O)C(=O)N[C@H](C(=O)N[C@@H](CC(N)=O)C(=O)N[C@@H](CC(C)C)[C@@H](O)CC(=O)N[C@H](C(=O)N[C@@H](C)C(=O)N[C@@H](CCC(=O)O)C(=O)N[C@@H](Cc4ccccc4)C(=O)N[C@@H](CCCNC(=N)N)C(=O)N[C@@H](Cc4c[nH]cn4)C(=O)N[C@@H](CC(=O)O)C(=O)N[C@@H](CO)C(=O)NCC(=O)N[C@@H](Cc4ccc(O)cc4)C(=O)N[C@@H](CCC(=O)O)C(=O)N[C@H](C(=O)N[C@@H](Cc4c[nH]cn4)C(=O)N[C@@H](Cc4c[nH]cn4)C(=O)N[C@@H](CCC(N)=O)C(=O)N[C@@H](CCCCN)C(=O)N[C@@H](CC(C)C)C(=O)N[C@H](C(=O)N[C@@H](Cc4ccccc4)C(=O)N[C@@H](Cc4ccccc4)C(=O)N[C@@H](C)C(=O)N[C@@H](CCC(=O)O)C(=O)N[C@@H](CC(=O)O)C(=O)N[C@H](C(=O)NCC(=O)N[C@@H](CO)C(=O)N[C@@H](CC(N)=O)C(=O)N[C@@H](CCCCN)C(=O)N[C@@H](CC(=O)O[C@H]4CC[C@@]5(C)C(CCC6C5CC[C@@]5(C)C6CC[C@@H]5[C@H](C)CCCC(C)C)C4)C(N)=O)C(C)C)C(C)C)C(C)C)C(C)C)C(C)C)CC3)c3ccc(=[N+](CC)CC)cc-3oc2c1` (stereo partly shown) [compound 24b] (H-E(Piperazinyl(4-RhodamineB))[βAla]GEVN[Sta]VAEFRHDSGYEVHHQKLVFFAEDVGSNKD(X1)-NH2), the “solubility in an aqueous medium (qualitative comparison of 24b and 25b)” value is listed as “higher solubility”.
